# Test results as given in US20260209362A1 (VIB VZW, published 2026).
# Substitutions are numbered along the chain they refer to.
# T1: biotinylated recombinant human IL-12Rβ2 (human, UniProt Q99665 24-622, random biotinylated)
# T1 construct: Recombinant protein produced in-house; also called hIL-12RB2; human IL-12RB2
# T1 sequence: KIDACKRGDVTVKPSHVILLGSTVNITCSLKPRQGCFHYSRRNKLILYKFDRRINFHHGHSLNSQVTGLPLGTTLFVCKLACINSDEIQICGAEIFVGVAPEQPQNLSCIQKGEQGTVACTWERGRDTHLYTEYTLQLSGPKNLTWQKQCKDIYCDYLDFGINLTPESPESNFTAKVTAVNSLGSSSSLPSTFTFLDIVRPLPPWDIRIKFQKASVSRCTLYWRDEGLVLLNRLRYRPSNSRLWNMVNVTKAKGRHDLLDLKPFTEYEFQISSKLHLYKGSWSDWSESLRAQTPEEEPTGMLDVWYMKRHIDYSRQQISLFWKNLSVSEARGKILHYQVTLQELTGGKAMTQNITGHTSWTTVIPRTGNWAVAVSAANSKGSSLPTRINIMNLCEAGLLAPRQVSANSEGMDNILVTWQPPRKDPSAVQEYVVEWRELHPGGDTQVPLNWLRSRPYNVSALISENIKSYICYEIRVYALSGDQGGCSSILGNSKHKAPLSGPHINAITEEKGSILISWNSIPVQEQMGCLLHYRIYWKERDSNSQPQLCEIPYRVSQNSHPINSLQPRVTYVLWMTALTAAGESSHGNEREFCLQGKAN
# T2: biotinylated recombinant mouse IL-12Rβ2 (mouse, UniProt P97378 24-637, random biotinylated)
# T2 construct: Recombinant protein produced in-house; also called mIL-12RB2; mouse IL-12RB2
# T2 sequence: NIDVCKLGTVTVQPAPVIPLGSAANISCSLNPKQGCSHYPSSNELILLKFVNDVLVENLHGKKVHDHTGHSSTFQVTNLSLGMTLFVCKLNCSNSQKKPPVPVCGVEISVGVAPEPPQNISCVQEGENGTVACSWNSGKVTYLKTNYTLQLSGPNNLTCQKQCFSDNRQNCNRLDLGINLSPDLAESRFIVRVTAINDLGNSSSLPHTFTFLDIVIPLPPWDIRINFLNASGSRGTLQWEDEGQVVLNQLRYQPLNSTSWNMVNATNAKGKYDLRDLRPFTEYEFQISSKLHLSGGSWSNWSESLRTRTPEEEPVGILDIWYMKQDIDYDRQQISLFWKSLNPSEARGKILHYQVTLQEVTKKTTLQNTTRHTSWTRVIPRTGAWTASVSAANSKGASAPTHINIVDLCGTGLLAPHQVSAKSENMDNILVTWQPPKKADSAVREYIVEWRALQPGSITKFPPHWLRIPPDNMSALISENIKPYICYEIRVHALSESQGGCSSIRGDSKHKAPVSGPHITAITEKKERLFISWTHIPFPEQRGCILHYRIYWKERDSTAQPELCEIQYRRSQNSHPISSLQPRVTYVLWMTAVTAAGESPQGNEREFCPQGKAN
# B1: anti-IL-12Rβ2 VHH clone 3CAHS142 (clone ID 20401) (VHH, not shown: small tags and cut ends)
# VHH: QVQLQESGGGLVQAGESLTLSCIASGVIKDYAMGWFRQAPGKEREFVAAISWSGVSIYYADSVKGRFTISRDNAKNTVYLQMNSLEPEDTAVYYCAGTEGAYTVAGGSTFGYDMDYWGKGTQVTVSS
# notes: periplasmic extract
# B2: anti-IL-12Rβ2 VHH clone 3CAHS170 (clone ID 20406) (VHH, not shown: small tags and cut ends)
# VHH: QVQLQESGGGLVQAGGSLRLSCVASGRTFSSYAMGWFRQGPGKEREFVAAISWSGVSIYYADSVKGRFTISRDNAKNTVYLQMNSLEPEDTAVYYCAGTEGAYTVAGGSTFGYDMDYWGKGTQVTVSS
# notes: periplasmic extract
# B3: anti-IL-12Rβ2 VHH clone 2CAH27 (clone ID 20354) (VHH, not shown: small tags and cut ends)
# VHH: B2 VHH with L11S, A14S
# notes: periplasmic extract
# B4: anti-IL-12Rβ2 VHH clone 3CAH48 (clone ID 20360) (VHH, not shown: small tags and cut ends)
# VHH: B2 VHH with V23A, I58T, E87R, G98A
# notes: periplasmic extract
# B5: anti-IL-12Rβ2 VHH clone 3CAHS39 (clone ID 20393) (VHH, not shown: small tags and cut ends)
# VHH: QVQLQESGGGLVQAGGSLRLSCAASGRTINAYIMGWFRQAPGKEREFVAAVSGSGGSTYYADSVKGRFTISRDNAKNTVNLQMDNLRSEDTDVYYCAATYESVYLQNPGQYDYWGQGTQVTVSS
# notes: periplasmic extract
# B6: anti-IL-12Rβ2 VHH clone 3CAHS124 (clone ID 20400) (VHH, not shown: small tags and cut ends)
# VHH: B5 VHH with A14P
# notes: periplasmic extract
# B7: anti-IL-12Rβ2 VHH clone 3CAHS53 (clone ID 20397) (VHH, not shown: small tags and cut ends)
# VHH: B5 VHH with Q13E, A14P, N74S
# notes: periplasmic extract
# B8: anti-IL-12Rβ2 VHH clone 3CAHS43 (clone ID 20395) (VHH, not shown: small tags and cut ends)
# VHH: B5 VHH with L11S, Q106R
# notes: periplasmic extract
# B9: anti-IL-12Rβ2 VHH clone 3CAHS52 (clone ID 20396) (VHH, not shown: small tags and cut ends)
# VHH: B5 VHH with L11S
# notes: periplasmic extract
# B10: anti-IL-12Rβ2 VHH clone 3CAHS150 (clone ID 20403) (VHH, not shown: small tags and cut ends)
# VHH: B5 VHH with L11S, I33V, V51I
# notes: periplasmic extract
# B11: anti-IL-12Rβ2 VHH clone 3CRH14 (clone ID 20374) (VHH, not shown: small tags and cut ends)
# VHH: QVQLQESGGGLVQPGGSLRLSCAASGFTFSTSGMHWFRQAPGKGLEWVSSIGIIVDSSYYADSVKGRFTISRDNAKNTLFLQMNSLKSEDTAVYYCSKDPTGSSRGQGTQVTVSS
# notes: periplasmic extract
# B12: anti-IL-12Rβ2 VHH clone 3CRH45 (clone ID 20383) (VHH, not shown: small tags and cut ends)
# VHH: B11 VHH with S32F, V55D, S57N, D62S, F80Y, P100T
# notes: periplasmic extract
# B13: anti-IL-12Rβ2 VHH clone 3CRHS109 (clone ID 20430) (VHH, not shown: small tags and cut ends)
# VHH: B11 VHH with D62S, F80Y, Q82H, P100V
# notes: periplasmic extract
# B14: anti-IL-12Rβ2 VHH clone 3CRH43 (clone ID 20382) (VHH, not shown: small tags and cut ends)
# VHH: B11 VHH with L11S, D62S, T78I, L79V, F80Y
# notes: periplasmic extract
# B15: anti-IL-12Rβ2 VHH clone 3CRHS128 (clone ID 20432) (VHH, not shown: small tags and cut ends)
# VHH: B11 VHH with I53A, I54T, S57N, D62S, F80Y, Q82L
# notes: periplasmic extract
# B16: anti-IL-12Rβ2 VHH clone 3CRHS142 (clone ID 20434) (VHH, not shown: small tags and cut ends)
# VHH: QVQLQESGGGLVQAGGSLRLSCVSSQTLVGIEAMGWYRQAPGKQRELVALITLNGGTFYADSVKGRFTISRDVAEHMLYLEMNSLNPEDTAVYFCVAGVESDNEEPTYWGQGTQVTVSS
# notes: periplasmic extract
# B17: anti-IL-12Rβ2 VHH clone 3CRHS156 (clone ID 20437) (VHH, not shown: small tags and cut ends)
# VHH: B16 VHH with A14S, T68A
# notes: periplasmic extract
# B18: anti-IL-12Rβ2 VHH clone 3CRHS166 (clone ID 20439) (VHH, not shown: small tags and cut ends)
# VHH: B16 VHH with A14S
# notes: periplasmic extract
# B19: anti-IL-12Rβ2 VHH clone 3CRHS67 (clone ID 20424) (VHH, not shown: small tags and cut ends)
# VHH: B16 VHH with R19T
# notes: periplasmic extract
# B20: anti-IL-12Rβ2 VHH clone 2CRHS4 (clone ID 20411) (VHH, not shown: small tags and cut ends)
# VHH: B16 VHH with A14P, E75G
# notes: periplasmic extract
# B21: anti-IL-12Rβ2 VHH clone 3CRH38 (clone ID 20381) (VHH, not shown: small tags and cut ends)
# VHH: QVQLQESGGGLVQAGGSLVLSCAASGSAALIFLMSWYRQAPGKQRELVAEVSRGGSTTYADSVEGRFTISRDNAKNIVDLQMNSLKPEDTAVYYCKADQNYGDSLRSSWGRGTQVTVSS
# notes: periplasmic extract
# B22: anti-IL-12Rβ2 VHH clone 2CRH53 (clone ID 20366) (VHH, not shown: small tags and cut ends)
# VHH: B21 VHH with G54Y, N76D, N100Y
# notes: periplasmic extract
# B23: anti-IL-12Rβ2 VHH clone 3CRHS2 (clone ID 20413) (VHH, not shown: small tags and cut ends)
# VHH: B21 VHH with A14L, V19T, G54Y, N100Y
# notes: periplasmic extract
# Tests used:
# [1] = molecular target: T1, biotinylated recombinant human IL-12Rβ2; test: BLI, P.E., off-rate ranking
# [2] = molecular target: T1, biotinylated recombinant human IL-12Rβ2; test: ELISA, P.E., biotinylated antigen
# [3] = molecular target: T2, biotinylated recombinant mouse IL-12Rβ2; test: ELISA, P.E., biotinylated antigen
Binder,Response [1],koff [1] [s⁻¹],ELISA hIL-12RB2/control [2],ELISA mIL-12RB2/control [3]
B1,0.352,0.00324,4.98,1.07
B2,0.515,0.00379,5.87,0.945
B3,0.482,0.00494,3.84,1.05
B4,0.759,0.00443,9.56,1.11
B5,0.612,0.00508,4.73,1.14
B6,0.293,0.00324,5.67,1
B7,0.47,0.00479,6.58,1.1
B8,0.605,0.00485,8.23,1.31
B9,0.508,0.00422,10,1.22
B10,0.31,0.00369,4.54,0.988
B11,0.438,0.00328,5.51,1.19
B12,0.427,0.00361,4.58,1.39
B13,0.745,0.0374,3.18,1.07
B14,0.296,0.00243,4.75,0.828
B15,0.294,0.00274,3.65,0.984
B16,0.205,0.00275,23.7,0.999
B17,0.282,0.00297,24.5,1.03
B18,0.149,0.00247,23.2,1.06
B19,0.416,0.00443,18.3,1.19
B20,0.279,0.00311,12.5,1.07
B21,0.475,0.00413,11.8,1.85
B22,0.652,0.00598,5.51,0.967
B23,0.5,0.00404,5.59,1.01
